# Results reported in patent US8173397B2, “Folded recombinant catalytic fragments of multidomain serine proteases, preparation and uses thereof” (TargetEx Kft., priority 2002, dated 2012).
# T1: C2 (Homo sapiens, UniProt P06681)
# T1 construct: from tissue
# T1 sequence (P06681 21-752): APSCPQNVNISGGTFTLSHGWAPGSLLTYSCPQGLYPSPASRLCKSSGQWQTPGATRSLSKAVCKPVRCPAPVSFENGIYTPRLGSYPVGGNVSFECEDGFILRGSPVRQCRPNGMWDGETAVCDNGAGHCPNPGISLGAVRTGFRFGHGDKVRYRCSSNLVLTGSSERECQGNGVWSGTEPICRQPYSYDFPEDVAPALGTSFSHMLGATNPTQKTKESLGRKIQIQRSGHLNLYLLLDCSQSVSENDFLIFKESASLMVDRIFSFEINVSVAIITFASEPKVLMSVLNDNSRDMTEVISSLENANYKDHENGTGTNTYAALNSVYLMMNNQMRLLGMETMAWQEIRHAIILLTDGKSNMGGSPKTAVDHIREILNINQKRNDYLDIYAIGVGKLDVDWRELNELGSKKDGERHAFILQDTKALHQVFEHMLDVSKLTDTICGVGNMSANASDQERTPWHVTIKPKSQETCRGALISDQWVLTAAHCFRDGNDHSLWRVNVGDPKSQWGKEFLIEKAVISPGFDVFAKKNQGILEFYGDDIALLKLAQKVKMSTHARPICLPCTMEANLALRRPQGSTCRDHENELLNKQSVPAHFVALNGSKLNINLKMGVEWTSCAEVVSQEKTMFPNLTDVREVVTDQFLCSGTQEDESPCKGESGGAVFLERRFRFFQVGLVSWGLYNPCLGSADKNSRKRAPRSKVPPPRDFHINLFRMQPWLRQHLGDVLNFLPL
# T2: C1-inhibitor (Homo sapiens, UniProt P05155)
# T2 construct: Purification of C1-inh and Alpha-2-Macroglobulin; from tissue
# T2 sequence (P05155 23-500): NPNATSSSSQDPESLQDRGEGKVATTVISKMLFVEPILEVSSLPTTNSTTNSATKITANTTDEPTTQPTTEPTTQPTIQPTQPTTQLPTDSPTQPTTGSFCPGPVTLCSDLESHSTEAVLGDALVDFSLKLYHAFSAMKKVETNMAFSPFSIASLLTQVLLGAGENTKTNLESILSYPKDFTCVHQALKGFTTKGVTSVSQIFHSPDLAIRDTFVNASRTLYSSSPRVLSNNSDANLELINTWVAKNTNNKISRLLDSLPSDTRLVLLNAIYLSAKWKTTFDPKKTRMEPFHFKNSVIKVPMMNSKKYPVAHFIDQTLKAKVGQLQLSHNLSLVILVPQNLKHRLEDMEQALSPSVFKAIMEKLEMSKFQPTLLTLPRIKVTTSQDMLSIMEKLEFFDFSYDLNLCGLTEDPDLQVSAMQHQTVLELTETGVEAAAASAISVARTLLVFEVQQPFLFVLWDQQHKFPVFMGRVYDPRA
# B1: MASP-2 CCP-SP: E. coli-expressed, refolded human MASP-2 CCP2-SP fragment, Ala-Ser-Met-Thr tag followed by Ile363, ending Phe686 (protein)
# chain 1: ASMTIVDCGPPDDLPSGRVEYITGPGVTTYKAVIQYSCEETFYTMKVNDGKYVCEADGFWTSSKGEKSLPVCEPVCGLSARTTGGR
# chain 2: IYGGQKAKPGDFPWQVLILGGTTAAGALLYDNWVLTAAHAVYEQKHDASALDIRMGTLKRLSPHYTQAWSEAVFIHEGYTHDAGFDNDIALIKLNNKVVINSNITPICLPRKEAESFMRTDDIGTASGWGLTQRGFLARNLMYVDIPIVDHQKCTAAYEKPPYPRGSVTANMLCAGLESGGKDSCRGDSGGALVFLDSETERWFVGGIVSWGSMNCGEAGQYGVYTKVINYIPWIENIISDF
# B2: MASP-2 SP: E. coli-expressed, refolded human MASP-2 serine protease domain, Ala-Ser-Met-Thr tag followed by Pro432, ending Phe686 (protein)
# chain 1: ASMTPVCGLSARTTGGR
# chain 2: B1 chain 2
# B3: MASP-2γB: E. coli-expressed, refolded human MASP-2 CCP1-CCP2-SP fragment, Thr287 to Phe686, Ala-Ser-Met tag; purified form starts with Ile291 (protein)
# chain 1: IHYTSTAQPCPYPMAPPNGHVSPVQAKYILKDSFSIFCETGYELLQGHLPLKSFTAVCQKDGSWDRPMPACSIVDCGPPDDLPSGRVEYITGPGVTTYKAVIQYSCEETFYTMKVNDGKYVCEADGFWTSSKGEKSLPVCEPVCGLSARTTGGR
# chain 2: B1 chain 2
# B4: CCP1-CCP2-SP: E. coli-expressed, refolded human C1r CCP1-CCP2-SP fragment, amino acids 309-705, N-terminal Ser-Thr-Gln-Ala (protein)
# chain 1: STQACPQPKTLDEFTIIQNLQPQYQFRDYFIATCKQGYQLIEGNQVLHSFTAVCQDDGTWHRAMPRCKIKDCGQPRNLPNGDFRYTTTMGVNTYKARIQYYCHEPYYKMQTRAGSRESEQGVYTCTAQGIWKNEQKGEKIPRCLPVCGKPVNPVEQRQR
# chain 2: IIGGQKAKMGNFPWQVFTNIHGRGGGALLGDRWILTAAHTLYPKEHEAQSNASLDVFLGHTNVEELMKLGNHPIRRVSVHPDYRQDESYNFEGDIALLELENSVTLGPNLLPICLPDNDTFYDLGLMGYVSGFGVMEEKIAHDLRFVRLPVANPQACENWLRGKNRMDVFSQNMFCAGHPSLKQDACQGDSGGVFAVRDPNTDRWVATGIVSWGIGCSRGYGFYTKVLNYVDWIKKEMEEED
# B5: CCP2-SP: E. coli-expressed, refolded human C1r CCP2-SP fragment, amino acids 376-705, N-terminal Ser-Thr-Gln-Ala (protein)
# chain 1: STQACGQPRNLPNGDFRYTTTMGVNTYKARIQYYCHEPYYKMQTRAGSRESEQGVYTCTAQGIWKNEQKGEKIPRCLPVCGKPVNPVEQRQR
# chain 2: B4 chain 2
# Tests used:
# [1] = system: C4; test: C4 cleavage by MASP fragments; assay type: biochemical, human; conditions: for C4 kcat: 37° C., pH 7.4, averages of 2 to 4 experiments, standard errors
# Protocol: (§1) C2, C3, C3(NH3), C4 cleavage—Serial dilutions of MASP-1 and MASP-2 fragments ranging between concentrations of 1 μM and 10 pM were incubated at 37° C. in 20 mM HEPES, 140 mM NaCl, pH 7.4 with C2, C3, C3(NH3) or C4 at typical concentrations of 0.5-1 μM. The cleavage was followed by SDS-PAGE under reducing conditions. Desirable concentrations of the MASP fragments for further detailed kinetic analysis were chosen to be where half of the protein substrates were hydrolyzed during the first 20 minutes of incubation. The protein substrates C2, C3, C3(NH3) or C4 were then incubated with the selected concentrations of the MASP fragments at 37° C. in 20 mM HEPES, 140 mM NaCl, pH 7.4. Typically 11-13 samples were taken at varying time periods but always within 50 minutes from the beginning of the reaction. Cleavages rates were quantified by measuring the diminution of the cleaved chain visualized by Coomassie stained SDS-PAGs using a GEL DOC 1000 instrument and Molecular Analyst Software for densitometric calculations (Bio-Rad, Hercules, Calif., USA). The reactions were assumed to be of the Michaelis-Menten type. In the case of C3 and C3(NH3) cleavage a further reasonable assumption of KM>>[substrate] was made. The constants KM, kcat and KM/kcat were estimated by unbiased non-linear regression methods regressing the data on the following equations: t=([S0]−[S]+KMln([S0]/[S]))/(kcat[E0]) or in the case of C3 and C3(NH3) cleavage on [S]=[S0]exp(−t[E0]kcat/KM).
# [2] = target: T1, C2; test: C2 cleavage by MASP fragments; assay type: biochemical; conditions: 37° C., pH 7.4; averages of 2 to 4 experiments, standard errors
# Protocol: as §1
# [3] = target: T2, C1-inhibitor; test: Rate of SDS stable complex formation of 125I-labelled MASP fragments with C1-inhibitor; assay type: biochemical
# Protocol: To assess the rate of SDS stable complex formation between the MASP-1 and MASP-2 CCP1-CCP2-SP fragments and C1-inhibitor, the ^125I-labelled MASP fragments at concentrations ranging between 30-100 nM were incubated with 100-350 nM C1-inhibitor at 37° C. in 20 mM HEPES, 140 mM NaCl, pH 7.4 for 40 minutes. Typically 11-13 samples were taken at varying time periods. The reactions were stopped by reducing sample buffer containing 0.125 M Tris, 4.8% SDS, 8 M urea 20% glycerol, 720 mM mercaptoethanol, 0.02% bromophenol blue, pH6.8. The samples were further incubated at 37° C. for 30 minutes and run on reducing SDS-PAGE. Cleavages rates were visualized by means of autoradiography and the diminution of the reacted MASP chain was quantified using a GEL DOC 1000 instrument and Molecular Analyst Software for densitometric calculations (Bio-Rad, Hercules, Calif., USA). The kinetic constants were calculated assuming irreversible inhibition proceeded by reversible enzyme-inhibitor complex formation. Using steady-state approximation and neglecting the starting enzyme concentration compared to the starting inhibitor concentration ([I0]>>[E0]) the data was regressed on the following equation using non-linear regression methods: [E]=[E0]exp(−kobst); kobs=k2[I0]/(Ki+[I0]), where kobs is the observed pseudo-first order rate of reaction, k2 is the rate of irreversible enzyme-inhibitor complex formation and Ki is the inhibitory constant.
# [4] = Differential scanning calorimetry of C1r fragments; assay type: physicochemical; conditions: 20 mM Tris pH 8.3, 145 mM NaCl, 0.1 mg/ml, 1° C./min
# Protocol: Calorimetric measurements were performed on a VP-DSC (Microcal Inc, Northampton, Mass.) differential scanning calorimeter. Denaturation curves were recorded between 10 and 80° C. at a pressure of 2.5 atm, using a scanning rate of 1° C./min. The protein concentration was set to 0.1 mg/ml. Samples were dialyzed against 20 mM Tris pH 8.3 145 mM NaCl, and the dialysis buffer was used as a reference. Heat capacities were calculated as outlined by Privalov (16).
# [5] = target: T3, live C3 (Homo sapiens, UniProt P01024); test: Cleavage of live C3 by MASP fragments, SDS-PAGE densitometry; assay type: biochemical; conditions: control experiment
# T3 construct: was isolated from fresh human serum; from tissue; host or cells: fresh human serum
# T3 sequence (P01024 672-1663 limits assumed): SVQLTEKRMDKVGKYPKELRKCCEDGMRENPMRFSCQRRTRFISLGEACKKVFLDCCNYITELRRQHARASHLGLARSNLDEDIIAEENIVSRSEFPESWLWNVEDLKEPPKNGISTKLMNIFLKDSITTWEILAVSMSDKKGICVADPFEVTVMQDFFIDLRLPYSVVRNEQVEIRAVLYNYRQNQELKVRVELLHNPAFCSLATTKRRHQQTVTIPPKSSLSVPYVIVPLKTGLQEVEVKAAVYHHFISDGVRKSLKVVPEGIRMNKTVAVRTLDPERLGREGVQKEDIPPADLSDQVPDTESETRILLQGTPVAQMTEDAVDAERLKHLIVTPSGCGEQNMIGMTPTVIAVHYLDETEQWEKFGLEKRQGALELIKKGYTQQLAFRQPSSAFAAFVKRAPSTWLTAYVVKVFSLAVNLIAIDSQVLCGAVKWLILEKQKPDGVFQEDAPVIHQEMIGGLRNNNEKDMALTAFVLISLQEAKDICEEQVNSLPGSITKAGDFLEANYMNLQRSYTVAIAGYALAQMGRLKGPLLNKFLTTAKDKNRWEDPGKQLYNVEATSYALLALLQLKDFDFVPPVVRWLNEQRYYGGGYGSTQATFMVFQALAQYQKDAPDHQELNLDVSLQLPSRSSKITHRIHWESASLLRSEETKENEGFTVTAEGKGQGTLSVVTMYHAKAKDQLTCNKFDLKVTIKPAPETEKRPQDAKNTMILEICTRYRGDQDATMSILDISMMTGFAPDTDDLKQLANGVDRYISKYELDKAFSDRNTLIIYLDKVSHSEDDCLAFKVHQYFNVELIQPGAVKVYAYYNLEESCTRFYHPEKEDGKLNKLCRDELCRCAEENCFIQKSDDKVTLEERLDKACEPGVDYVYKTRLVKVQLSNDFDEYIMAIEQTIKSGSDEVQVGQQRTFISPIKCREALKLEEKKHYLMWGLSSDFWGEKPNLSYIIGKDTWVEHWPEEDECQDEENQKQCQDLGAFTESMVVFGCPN
# T3 sequence (P01024 23-667 partner limits assumed): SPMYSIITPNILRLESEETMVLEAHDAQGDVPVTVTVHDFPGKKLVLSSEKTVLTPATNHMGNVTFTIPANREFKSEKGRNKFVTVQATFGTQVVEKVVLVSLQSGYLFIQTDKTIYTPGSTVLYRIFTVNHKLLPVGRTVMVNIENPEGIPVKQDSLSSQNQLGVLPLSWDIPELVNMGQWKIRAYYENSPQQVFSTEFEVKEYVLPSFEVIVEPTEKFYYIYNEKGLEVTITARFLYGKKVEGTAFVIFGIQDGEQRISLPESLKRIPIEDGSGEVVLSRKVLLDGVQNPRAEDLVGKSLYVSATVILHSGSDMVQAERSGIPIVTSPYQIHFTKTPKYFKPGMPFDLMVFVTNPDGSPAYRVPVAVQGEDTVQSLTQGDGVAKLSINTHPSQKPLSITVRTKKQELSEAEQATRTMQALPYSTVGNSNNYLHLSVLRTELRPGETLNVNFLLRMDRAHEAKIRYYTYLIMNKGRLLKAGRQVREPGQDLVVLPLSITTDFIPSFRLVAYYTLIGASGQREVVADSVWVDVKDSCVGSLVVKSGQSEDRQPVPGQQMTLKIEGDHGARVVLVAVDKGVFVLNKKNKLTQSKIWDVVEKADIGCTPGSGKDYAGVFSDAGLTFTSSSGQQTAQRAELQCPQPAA
# Protocol: as §1, with “The constants KM, kcat and KM/kcat were estimated by unbiased non-linear regression methods regressing the data on the following equations: t=([S0]−[S]+KMln([S0]/[S]))/(kcat[E0]) or in the case of C3 and C3(NH3) cleavage on [S]=[S0]exp(−t[E0]kcat/KM).” left out
# [6] = target: T4, C3(NH3) (Homo sapiens, UniProt P01024); test: Cleavage of dead C3, C3(NH3), by MASP fragments, SDS-PAGE densitometry; assay type: biochemical; conditions: control experiment
# T4 construct: was isolated from fresh human serum; from tissue; host or cells: fresh human serum, then amidolysis with ammonium hydrogen carbonate
# T4 sequence (P01024 672-1663 limits assumed): as the sequence (P01024 672-1663 limits assumed) above
# T4 sequence (P01024 23-667 partner limits assumed): as the sequence (P01024 23-667 partner limits assumed) above
# Protocol: Amidolysis of C3 The intact thiol ester bond in ‘live’ C3 was cleaved using ammonium salt as the nucleophile to obtain ‘dead’ C3(NH3), according to Soames and Sim (1997) with modifications. C3 was incubated with a final concentration of 0.2 M ammonium hydrogen carbonate for 90 min at 37° C., making sure that the final pH of the reaction was above 8.0. At the end of the incubation, the reaction was collected with a brief centrifugation (5 min, 8000 g, RT) and dialyzed against 20 mM HEPES, 140 mM NaCl, pH 7.4.
# C2, C3, C3(NH3), C4 cleavage—Serial dilutions of MASP-1 and MASP-2 fragments ranging between concentrations of 1 μM and 10 pM were incubated at 37° C. in 20 mM HEPES, 140 mM NaCl, pH 7.4 with C2, C3, C3(NH3) or C4 at typical concentrations of 0.5-1 μM. The cleavage was followed by SDS-PAGE under reducing conditions. Desirable concentrations of the MASP fragments for further detailed kinetic analysis were chosen to be where half of the protein substrates were hydrolyzed during the first 20 minutes of incubation. […] Cleavages rates were quantified by measuring the diminution of the cleaved chain visualized by Coomassie stained SDS-PAGs using a GEL DOC 1000 instrument and Molecular Analyst Software for densitometric calculations (Bio-Rad, Hercules, Calif., USA). […]
Molecule,C4 kcat [1],C2 kcat [2],DSC melting / unfolding transition temperature [4],other results
B1,2.0 ± 1.0 s⁻¹,3.0 ± 2.2 s⁻¹,–,increase in the kcat/KM value of C4 cleavage by presence of the CCP2 domain ([1]; relative to MASP-2 SP domain alone): 44 fold
B2,0.20 ± 0.06 s⁻¹,3.9 ± 3.0 s⁻¹,–,–
B3,0.9 ± 0.4 s⁻¹,1.9 ± 0.8 s⁻¹,–,"Ki values for the C1-inhibitor reaction, in words [3]: in the nanomolar range; k2, rate of irreversible enzyme-inhibitor complex formation with C1-inh ([3]; 37° C., pH 7.4): 0.008 s⁻¹; Ki ([3]; 37° C., pH 7.4, read-out: Ki, reaction with C1-inh): 8.8 nM; kobs, pseudo-first order rate of reaction with C1-inh ([3]; [C1-inh] = 350 nM, 37° C., pH 7.4): 0.0078 s⁻¹"
B4,–,–,57.5 °C,"cleavage of 'live' C3, in words [5]: no cleavages; cleavage of 'dead' C3, in words [6]: no cleavages"
B5,–,–,55.4 °C,–
